The supplement of paper PMC9233669
Fewer inactive variants are shown than the library holds.

How the values were obtained:
[1] = test system: biotinyl-Phe-oxazolone; assay: self-aminoacylation, catalytic enhancement (BFO) (fold over background); higher = more active; k-Seq, kA / k0A0; sequences stand for … in GGGAAUGGAUCCACAUCUACGAAUUC…UUCACUGCAGACUUGACGAAGCUG
Summary of the method: (§1)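 Each biotinyl-aminoacyl-oxazolone, at 2–1250 μM, was incubated with mutagenized RNA pools (0.43 μM) carrying a 21-nt variable region. The 50 μL reactions contained HEPES/NaCl/KCl/MgCl2/CaCl2 buffer with 5% acetonitrile at pH 6.9–7.0 and ran for 90 minutes at room temperature. After streptavidin capture, RNA was measured by qPCR in triplicate and by Illumina sequencing, and catalytic enhancement was calculated as median kA over the uncatalyzed rate from a pseudo-first-order fit of per-sequence fraction reacted.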

[2] = test system: biotinyl-Ile-oxazolone; assay: self-aminoacylation, catalytic enhancement (BIO) (fold over background); higher = more active; k-Seq, kA / k0A0; sequences stand for … in GGGAAUGGAUCCACAUCUACGAAUUC…UUCACUGCAGACUUGACGAAGCUG
Summary of the method: as §1

[3] = test system: biotinyl-Met-oxazolone; assay: self-aminoacylation, catalytic enhancement (BMO) (fold over background); higher = more active; k-Seq, kA / k0A0; sequences stand for … in GGGAAUGGAUCCACAUCUACGAAUUC…UUCACUGCAGACUUGACGAAGCUG
Summary of the method: as §1

[4] = test system: biotinyl-Val-oxazolone; assay: self-aminoacylation, catalytic enhancement (BVO) (fold over background); higher = more active; k-Seq, kA / k0A0; sequences stand for … in GGGAAUGGAUCCACAUCUACGAAUUC…UUCACUGCAGACUUGACGAAGCUG
Summary of the method: as §1

[5] = test system: biotinyl-Leu-oxazolone; assay: self-aminoacylation, catalytic enhancement (BLO) (fold over background); higher = more active; k-Seq, kA / k0A0; sequences stand for … in GGGAAUGGAUCCACAUCUACGAAUUC…UUCACUGCAGACUUGACGAAGCUG
Summary of the method: as §1

[6] = test system: biotinyl-Trp-oxazolone; assay: self-aminoacylation, catalytic enhancement (BWO) (fold over background); higher = more active; k-Seq, kA / k0A0; sequences stand for … in GGGAAUGGAUCCACAUCUACGAAUUC…UUCACUGCAGACUUGACGAAGCUG
Summary of the method: as §1

| Sequence | self-aminoacylation [1] | self-aminoacylation [2] | self-aminoacylation [3] | self-aminoacylation [4] | self-aminoacylation [5] | self-aminoacylation [6] |
| --- | --- | --- | --- | --- | --- | --- |
| CUACUUCACACCAUCGGUCUG [Fam1A.1 aminoacylation ribozyme variant] | 0.625 | 0.82 | 0.943 | 0.949 | 0.764 | 0.885 |
| CUACUUCACUCAAUCGGUCUG [Fam1A.1 aminoacylation ribozyme variant] | 0.865 | 0.732 | 0.72 | 0.934 | 0.719 | 0.651 |
| CUACUUCAGAAAAUCGGUCUG [Fam1A.1 aminoacylation ribozyme variant] | 1.55 | 0.791 | 0.803 | 0.816 | 0.757 | 0.826 |
| CUACUUCAGACAAGCGGUCUG [Fam1A.1 aminoacylation ribozyme variant] | 0.263 | 0.839 | 1.26 | 0.96 | 0.966 | 0.406 |
| CUACUUCAGACAAUCGAUCUG [Fam1A.1 aminoacylation ribozyme variant] | 0.994 | 0.669 | 0.542 | 0.634 | 0.477 | 0.493 |
| CUACUUCAGACAAUCGGACUG [Fam1A.1 aminoacylation ribozyme variant] | 0.835 | 0.864 | 0.586 | 0.829 | 0.662 | 0.652 |
| CUACUUCAGACAAUCGGUGUG [Fam1A.1 aminoacylation ribozyme variant] | 3.43 | 1.23 | 1.57 | 1.4 | 1.5 | 1.7 |
| CUACUUCAGACAAUCGGUUUG [Fam1A.1 aminoacylation ribozyme variant] | 0.819 | 0.771 | 0.613 | 0.86 | 0.596 | 0.646 |
| CUACUUCAGACAAUCGUUCUG [Fam1A.1 aminoacylation ribozyme variant] | 0.453 | 0.59 | 0.477 | 0.659 | 0.512 | 0.342 |
| CUACUUCAGACAAUGGGUCUG [Fam1A.1 aminoacylation ribozyme variant] | 0.994 | 0.948 | 0.798 | 0.791 | 0.916 | 0.664 |
| CUACUUCAGAGAAUCGGUCUG [Fam1A.1 aminoacylation ribozyme variant] | 0.895 | 0.846 | 0.951 | 0.806 | 0.853 | 0.7 |
| CUACUUCAUACAAACGGUCUG [Fam1A.1 aminoacylation ribozyme variant] | 1.06 | 0.936 | 0.725 | 0.803 | 0.652 | 0.536 |
| CUACUUCAUACAAUCGCUCUG [Fam1A.1 aminoacylation ribozyme variant] | 0.52 | 0.66 | 0.626 | 0.627 | 0.605 | 0.357 |
| CUACUUCAUACAAUCGUUCUG [Fam1A.1 aminoacylation ribozyme variant] | 0.733 | 0.535 | 0.476 | 0.655 | 0.477 | 0.371 |
| CUACUUCAUACAUUCGGUCUG [Fam1A.1 aminoacylation ribozyme variant] | 1.05 | 0.955 | 0.894 | 0.965 | 1.04 | 0.96 |
| CUACUUCCAACAAUCCGUCUG [Fam1A.1 aminoacylation ribozyme variant] | 0.668 | 0.794 | 0.771 | 0.886 | 0.999 | 0.524 |
| CUACUUCCAACAAUCGAUCUG [Fam1A.1 aminoacylation ribozyme variant] | 0.773 | 0.747 | 0.494 | 0.549 | 0.664 | 0.608 |
| CUACUUCCAACAAUCGGUCUG [Fam1A.1 aminoacylation ribozyme variant] | 1.11 | 0.766 | 0.722 | 0.768 | 0.702 | 0.831 |
| CUACUUCCAACACUCGGUCUG [Fam1A.1 aminoacylation ribozyme variant] | 0.522 | 0.978 | 1.03 | 0.958 | 1.01 | 0.796 |
| CUACUUCGAACAAUCCGUCUG [Fam1A.1 aminoacylation ribozyme variant] | 0.35 | 0.636 | 0.738 | 0.745 | 0.587 | 0.588 |
| CUACUUCGAACAAUCGGACUG [Fam1A.1 aminoacylation ribozyme variant] | 0.493 | 0.679 | 0.593 | 0.502 | 0.65 | 0.492 |
| CUACUUCGAACAAUCGGUCCG [Fam1A.1 aminoacylation ribozyme variant] | 2.05 | 0.879 | 1.09 | 0.738 | 0.865 | 0.959 |
| CUACUUCGAACAAUCGGUCGG [Fam1A.1 aminoacylation ribozyme variant] | 2.37 | 1.02 | 1.34 | 0.922 | 1.41 | 0.974 |
| CUACUUCGAACACUCGGUCUG [Fam1A.1 aminoacylation ribozyme variant] | 3.18 | 1.02 | 1.04 | 1.18 | 1.32 | 1 |
| CUACUUCGAACAUUCGGUCUG [Fam1A.1 aminoacylation ribozyme variant] | 0.576 | 1.29 | 1.05 | 1.32 | 1.18 | 0.84 |
